Results: patent publication US20130171155A1

Assays:
Assay in all cases: cell-based or functional assay
[1] = target: baboon factor D (in baboon serum or plasma) (baboon)
[2] = target: dog factor D (in dog serum) (dog); conditions: scale: times less effective than on human factor D
[3] = target: human factor D purified from human serum (human) (UniProt P00746)
Sequence of UniProt P00746 (P00746 26-253 N180D): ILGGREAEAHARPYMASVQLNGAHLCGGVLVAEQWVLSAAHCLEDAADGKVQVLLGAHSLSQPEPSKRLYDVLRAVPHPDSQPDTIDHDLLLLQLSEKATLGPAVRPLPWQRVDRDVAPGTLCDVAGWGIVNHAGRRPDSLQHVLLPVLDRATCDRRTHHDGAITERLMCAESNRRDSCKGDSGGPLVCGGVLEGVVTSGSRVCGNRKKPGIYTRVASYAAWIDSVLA

Work on MAb 166-32 (antibody) yielded an inhibition of alternative complement hemolytic activity of baboon plasma, 18 hours after CPB [1] of 79.3%, a neutralization of dog factor D in hemolytic assays [2] greater than 10 and an alternative complement activity (hemolytic assay, unsensitized rabbit RBCs) in paired extracorporeal circuits [3] of 18 µg/mL. It also gave an alternative pathway hemolytic activity of plasma from extracorporeal circuits (human whole blood) (molar ratio (MAb:factor D)) [3] of 1.5 and a factor D dependent hemolysis of unsensitized rabbit RBCs (factor D depleted human serum with added factor D) [3] of 0.3 µg/mL.
